Consider two molecules from patent US20250345387A1, “CORONAVIRUS THERAPEUTICS AND TREATMENT METHODS” (priority 2020, published 2025).

Where no end group is shown, it is not given here. Side-chain parts run from the residue outwards. 4‑arm PEG 10 kDa = 10 kDa 4-armed polyethylene glycol

In assay [1] the target is human Tie2 receptor on human endothelial cells (HUVEC, HMVECtert) (human, UniProt Q02763 23-1124). Briefly: cell-based or functional assay.
A further assay has as its target T1, recombinant rat Tie2-FC (Rattus norvegicus, UniProt A0ABK0L6J5 19-740).
T1 chain: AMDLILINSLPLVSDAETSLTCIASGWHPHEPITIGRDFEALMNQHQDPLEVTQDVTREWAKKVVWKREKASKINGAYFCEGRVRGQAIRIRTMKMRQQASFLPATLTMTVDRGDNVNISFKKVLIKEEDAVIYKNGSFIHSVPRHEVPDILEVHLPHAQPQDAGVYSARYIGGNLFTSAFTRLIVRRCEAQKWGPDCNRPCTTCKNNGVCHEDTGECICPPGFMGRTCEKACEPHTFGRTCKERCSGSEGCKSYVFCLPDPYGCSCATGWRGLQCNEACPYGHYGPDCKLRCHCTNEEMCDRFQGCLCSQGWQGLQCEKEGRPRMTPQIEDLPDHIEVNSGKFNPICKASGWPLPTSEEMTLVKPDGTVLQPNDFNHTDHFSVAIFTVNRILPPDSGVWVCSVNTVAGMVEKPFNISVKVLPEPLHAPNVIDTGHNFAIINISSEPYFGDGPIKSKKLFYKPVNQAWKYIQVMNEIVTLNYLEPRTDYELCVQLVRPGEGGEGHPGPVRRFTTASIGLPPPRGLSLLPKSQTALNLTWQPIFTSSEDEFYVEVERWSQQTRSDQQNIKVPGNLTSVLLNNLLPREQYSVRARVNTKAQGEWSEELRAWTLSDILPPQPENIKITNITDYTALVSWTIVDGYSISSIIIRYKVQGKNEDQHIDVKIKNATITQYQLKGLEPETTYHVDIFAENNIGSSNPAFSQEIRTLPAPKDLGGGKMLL
Briefly: tryptophan fluorescence spectroscopy.

Another assay concerns the target T2, recombinant mouse Tie2Fc (mouse, UniProt Q02858 23-743).
T2 chain: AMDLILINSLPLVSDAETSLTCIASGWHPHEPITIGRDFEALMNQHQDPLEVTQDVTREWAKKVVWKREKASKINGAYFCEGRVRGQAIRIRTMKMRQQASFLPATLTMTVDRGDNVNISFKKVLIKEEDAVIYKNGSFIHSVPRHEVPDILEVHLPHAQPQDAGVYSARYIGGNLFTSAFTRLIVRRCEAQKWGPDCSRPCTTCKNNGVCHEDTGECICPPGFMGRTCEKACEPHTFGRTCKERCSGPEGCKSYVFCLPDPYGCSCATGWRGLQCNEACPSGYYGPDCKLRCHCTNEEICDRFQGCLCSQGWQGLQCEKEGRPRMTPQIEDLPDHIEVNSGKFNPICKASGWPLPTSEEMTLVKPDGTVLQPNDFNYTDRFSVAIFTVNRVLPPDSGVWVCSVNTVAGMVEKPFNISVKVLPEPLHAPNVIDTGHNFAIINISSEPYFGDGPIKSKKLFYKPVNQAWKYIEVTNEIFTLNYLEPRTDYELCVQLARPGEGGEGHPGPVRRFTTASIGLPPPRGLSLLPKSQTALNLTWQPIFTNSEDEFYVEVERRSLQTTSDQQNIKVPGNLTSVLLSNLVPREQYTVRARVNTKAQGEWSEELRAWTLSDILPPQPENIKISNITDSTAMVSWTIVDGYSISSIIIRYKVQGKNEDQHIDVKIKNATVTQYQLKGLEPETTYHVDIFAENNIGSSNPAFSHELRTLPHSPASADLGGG
Briefly: tryptophan fluorescence spectroscopy.

The target of assay [2] is T3, recombinant cynomolgus monkey Tie2-FC (Macaca fascicularis, UniProt G7PS68 23-748).
T3 chain: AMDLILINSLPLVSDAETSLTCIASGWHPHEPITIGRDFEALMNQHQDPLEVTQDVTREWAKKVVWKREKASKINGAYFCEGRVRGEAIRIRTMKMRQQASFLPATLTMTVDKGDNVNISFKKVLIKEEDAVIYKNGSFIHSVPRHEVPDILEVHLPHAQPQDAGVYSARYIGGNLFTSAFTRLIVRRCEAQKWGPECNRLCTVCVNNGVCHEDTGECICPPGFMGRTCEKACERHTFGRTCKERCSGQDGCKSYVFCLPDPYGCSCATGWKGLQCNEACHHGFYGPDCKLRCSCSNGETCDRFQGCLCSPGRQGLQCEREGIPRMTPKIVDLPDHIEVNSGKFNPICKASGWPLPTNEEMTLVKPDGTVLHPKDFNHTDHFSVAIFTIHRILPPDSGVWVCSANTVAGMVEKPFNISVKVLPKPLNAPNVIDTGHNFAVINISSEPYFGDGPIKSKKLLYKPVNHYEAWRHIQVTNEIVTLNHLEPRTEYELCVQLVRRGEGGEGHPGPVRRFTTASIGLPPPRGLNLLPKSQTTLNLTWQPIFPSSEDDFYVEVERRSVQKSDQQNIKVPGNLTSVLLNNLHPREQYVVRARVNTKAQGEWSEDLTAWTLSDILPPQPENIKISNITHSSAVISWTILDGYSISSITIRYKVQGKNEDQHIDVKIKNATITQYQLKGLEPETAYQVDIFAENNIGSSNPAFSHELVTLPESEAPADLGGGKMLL
Briefly: tryptophan fluorescence spectroscopy.

The target in another assay is T4, recombinant human Tie2Fc (human, UniProt Q02763 23-745).
T4 construct: Bought from R&D Systems; not shown: human IgG Fc
Briefly: tryptophan fluorescence spectroscopy in solution, non-linear regression one site specific binding. The text has this: The specific signal was derived by subtraction of the fluorescence intensity generated by ligand alone from the receptor and ligand complex.
Ligand and receptor interaction. […] Data was compiled using SoftMax and analyzed using Prism.

B1: MPA-Br (peptide)
peptide: HHHRHSF-OH
modifications: not fully specified (N-terminus); also: tetramer: four copies on (bromoacetimide)4-PEG10K
notes: Mpa is not an amino acid; also called mBr; AV-001
The term Kd denotes the equilibrium constant for the complex coming apart. In the case of B1, in assay [1], the “relative magnitude of Tie2 activation in HMVECtert” value was about 3.3 fold. The dissociation constant (Kd) in the assay with recombinant rat Tie2-FC turned out to be 4.21 nM; with recombinant mouse Tie2Fc, 6.82 nM; in assay [2], 0.0229 nM; with recombinant human Tie2Fc, 2.62 nM.

B2: parental Vasculotide (peptide)
peptide: C([maleimide-4‑arm PEG 10 kDa])HHHRHSF
modifications: also: tetramer: four copies on 4-armed 10 kDa PEG, mixture of succinimide and thiazine ring products
notes: Manufactured by Bachem; also called VT; parental VT
For the molecule B2, in the assay with recombinant mouse Tie2Fc, the equilibrium dissociation constant (Kd) was found to be 35 nM.
